Results on 5 molecules are retold here after patent US20260015399A1 (Boehringer Ingelheim, published 2026).

*1 amine or outer side, *2 acyl side, *3 side chain or, on linkers, in order; H or OH if unused. Side-chain parts run from the residue outwards. The star is where a group is joined. C18 diacid = O=C(O)CCCCCCCCCCCCCCCCC(=O)*; γGlu = O=C(O)[C@H](CCC(=O)[*:2])N[*:1]; Isovaleryl = CC(C)CC(=O)*; Ahx = NCCCCCC(=O)O

First the molecules themselves.
T1: human NPY2 receptor (human, UniProt P49146 1-381)
T1 construct: whole, on cells; also called hNPY2-R; hNPY2R
T1 sequence (looked up): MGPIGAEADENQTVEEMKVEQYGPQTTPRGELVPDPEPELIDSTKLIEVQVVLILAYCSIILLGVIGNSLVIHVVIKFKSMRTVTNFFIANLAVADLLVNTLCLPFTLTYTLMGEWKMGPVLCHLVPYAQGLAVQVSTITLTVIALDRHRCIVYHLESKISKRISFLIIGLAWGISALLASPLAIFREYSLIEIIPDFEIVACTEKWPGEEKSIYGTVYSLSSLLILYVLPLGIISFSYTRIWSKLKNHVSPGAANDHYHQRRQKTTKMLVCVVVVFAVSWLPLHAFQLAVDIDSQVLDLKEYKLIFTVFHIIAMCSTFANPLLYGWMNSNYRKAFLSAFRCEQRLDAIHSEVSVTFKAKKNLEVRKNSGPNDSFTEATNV

B1: Compound 109 (peptide)
peptide: Isovaleryl-APEK([Ahx-γGlu-C18 diacid])PEEDLTPEELQRYYVSLRHYYNWLTRQRY-NH2
SMILES: CC(C)CC(=O)N[C@@H](C)C(=O)N1CCC[C@H]1C(=O)N[C@@H](CCC(=O)O)C(=O)N[C@@H](CCCCNC(=O)CCCCCNC(=O)CC[C@H](NC(=O)CCCCCCCCCCCCCCCCC(=O)O)C(=O)O)C(=O)N1CCC[C@H]1C(=O)N[C@@H](CCC(=O)O)C(=O)N[C@@H](CCC(=O)O)C(=O)N[C@@H](CC(=O)O)C(=O)N[C@@H](CC(C)C)C(=O)N[C@H](C(=O)N1CCC[C@H]1C(=O)N[C@@H](CCC(=O)O)C(=O)N[C@@H](CCC(=O)O)C(=O)N[C@@H](CC(C)C)C(=O)N[C@@H](CCC(N)=O)C(=O)N[C@@H](CCCNC(=N)N)C(=O)N[C@@H](Cc1ccc(O)cc1)C(=O)N[C@@H](Cc1ccc(O)cc1)C(=O)N[C@H](C(=O)N[C@@H](CO)C(=O)N[C@@H](CC(C)C)C(=O)N[C@@H](CCCNC(=N)N)C(=O)N[C@@H](Cc1c[nH]cn1)C(=O)N[C@@H](Cc1ccc(O)cc1)C(=O)N[C@@H](Cc1ccc(O)cc1)C(=O)N[C@@H](CC(N)=O)C(=O)N[C@@H](Cc1c[nH]c2ccccc12)C(=O)N[C@@H](CC(C)C)C(=O)N[C@H](C(=O)N[C@@H](CCCNC(=N)N)C(=O)N[C@@H](CCC(N)=O)C(=O)N[C@@H](CCCNC(=N)N)C(=O)N[C@@H](Cc1ccc(O)cc1)C(N)=O)[C@@H](C)O)C(C)C)[C@@H](C)O
B2: Compound 112 (peptide)
peptide: Isovaleryl-APEK([Ahx-γGlu-C18 diacid])PEEDAEPEEIQRYYVSLRHYYNWLTRQRY-NH2
SMILES: CC[C@H](C)[C@H](NC(=O)[C@H](CCC(=O)O)NC(=O)[C@H](CCC(=O)O)NC(=O)[C@@H]1CCCN1C(=O)[C@H](CCC(=O)O)NC(=O)[C@H](C)NC(=O)[C@H](CC(=O)O)NC(=O)[C@H](CCC(=O)O)NC(=O)[C@H](CCC(=O)O)NC(=O)[C@@H]1CCCN1C(=O)[C@H](CCCCNC(=O)CCCCCNC(=O)CC[C@H](NC(=O)CCCCCCCCCCCCCCCCC(=O)O)C(=O)O)NC(=O)[C@H](CCC(=O)O)NC(=O)[C@@H]1CCCN1C(=O)[C@H](C)NC(=O)CC(C)C)C(=O)N[C@@H](CCC(N)=O)C(=O)N[C@@H](CCCNC(=N)N)C(=O)N[C@@H](Cc1ccc(O)cc1)C(=O)N[C@@H](Cc1ccc(O)cc1)C(=O)N[C@H](C(=O)N[C@@H](CO)C(=O)N[C@@H](CC(C)C)C(=O)N[C@@H](CCCNC(=N)N)C(=O)N[C@@H](Cc1c[nH]cn1)C(=O)N[C@@H](Cc1ccc(O)cc1)C(=O)N[C@@H](Cc1ccc(O)cc1)C(=O)N[C@@H](CC(N)=O)C(=O)N[C@@H](Cc1c[nH]c2ccccc12)C(=O)N[C@@H](CC(C)C)C(=O)N[C@H](C(=O)N[C@@H](CCCNC(=N)N)C(=O)N[C@@H](CCC(N)=O)C(=O)N[C@@H](CCCNC(=N)N)C(=O)N[C@@H](Cc1ccc(O)cc1)C(N)=O)[C@@H](C)O)C(C)C
B3: Compound 111 (peptide)
peptide: Isovaleryl-APAK([Ahx-γGlu-C18 diacid])PEAAAEPEEIQRYYVSLRHYYNWLTRQRY-NH2
SMILES: CC[C@H](C)[C@H](NC(=O)[C@H](CCC(=O)O)NC(=O)[C@H](CCC(=O)O)NC(=O)[C@@H]1CCCN1C(=O)[C@H](CCC(=O)O)NC(=O)[C@H](C)NC(=O)[C@H](C)NC(=O)[C@H](C)NC(=O)[C@H](CCC(=O)O)NC(=O)[C@@H]1CCCN1C(=O)[C@H](CCCCNC(=O)CCCCCNC(=O)CC[C@H](NC(=O)CCCCCCCCCCCCCCCCC(=O)O)C(=O)O)NC(=O)[C@H](C)NC(=O)[C@@H]1CCCN1C(=O)[C@H](C)NC(=O)CC(C)C)C(=O)N[C@@H](CCC(N)=O)C(=O)N[C@@H](CCCNC(=N)N)C(=O)N[C@@H](Cc1ccc(O)cc1)C(=O)N[C@@H](Cc1ccc(O)cc1)C(=O)N[C@H](C(=O)N[C@@H](CO)C(=O)N[C@@H](CC(C)C)C(=O)N[C@@H](CCCNC(=N)N)C(=O)N[C@@H](Cc1c[nH]cn1)C(=O)N[C@@H](Cc1ccc(O)cc1)C(=O)N[C@@H](Cc1ccc(O)cc1)C(=O)N[C@@H](CC(N)=O)C(=O)N[C@@H](Cc1c[nH]c2ccccc12)C(=O)N[C@@H](CC(C)C)C(=O)N[C@H](C(=O)N[C@@H](CCCNC(=N)N)C(=O)N[C@@H](CCC(N)=O)C(=O)N[C@@H](CCCNC(=N)N)C(=O)N[C@@H](Cc1ccc(O)cc1)C(N)=O)[C@@H](C)O)C(C)C
B4: Compound 110 (peptide)
peptide: Isovaleryl-APEK([Ahx-γGlu-C18 diacid])PEEDATPEELQRYYVELRHYYNWLTRQRY-NH2
SMILES: CC(C)CC(=O)N[C@@H](C)C(=O)N1CCC[C@H]1C(=O)N[C@@H](CCC(=O)O)C(=O)N[C@@H](CCCCNC(=O)CCCCCNC(=O)CC[C@H](NC(=O)CCCCCCCCCCCCCCCCC(=O)O)C(=O)O)C(=O)N1CCC[C@H]1C(=O)N[C@@H](CCC(=O)O)C(=O)N[C@@H](CCC(=O)O)C(=O)N[C@@H](CC(=O)O)C(=O)N[C@@H](C)C(=O)N[C@H](C(=O)N1CCC[C@H]1C(=O)N[C@@H](CCC(=O)O)C(=O)N[C@@H](CCC(=O)O)C(=O)N[C@@H](CC(C)C)C(=O)N[C@@H](CCC(N)=O)C(=O)N[C@@H](CCCNC(=N)N)C(=O)N[C@@H](Cc1ccc(O)cc1)C(=O)N[C@@H](Cc1ccc(O)cc1)C(=O)N[C@H](C(=O)N[C@@H](CCC(=O)O)C(=O)N[C@@H](CC(C)C)C(=O)N[C@@H](CCCNC(=N)N)C(=O)N[C@@H](Cc1c[nH]cn1)C(=O)N[C@@H](Cc1ccc(O)cc1)C(=O)N[C@@H](Cc1ccc(O)cc1)C(=O)N[C@@H](CC(N)=O)C(=O)N[C@@H](Cc1c[nH]c2ccccc12)C(=O)N[C@@H](CC(C)C)C(=O)N[C@H](C(=O)N[C@@H](CCCNC(=N)N)C(=O)N[C@@H](CCC(N)=O)C(=O)N[C@@H](CCCNC(=N)N)C(=O)N[C@@H](Cc1ccc(O)cc1)C(N)=O)[C@@H](C)O)C(C)C)[C@@H](C)O
B5: Compound 113 (peptide)
peptide: Isovaleryl-APEK([Ahx-γGlu-C18 diacid])PEEDATPEEIQRYYVSLRHYQNWLTRQRY-NH2
SMILES: CC[C@H](C)[C@H](NC(=O)[C@H](CCC(=O)O)NC(=O)[C@H](CCC(=O)O)NC(=O)[C@@H]1CCCN1C(=O)[C@@H](NC(=O)[C@H](C)NC(=O)[C@H](CC(=O)O)NC(=O)[C@H](CCC(=O)O)NC(=O)[C@H](CCC(=O)O)NC(=O)[C@@H]1CCCN1C(=O)[C@H](CCCCNC(=O)CCCCCNC(=O)CC[C@H](NC(=O)CCCCCCCCCCCCCCCCC(=O)O)C(=O)O)NC(=O)[C@H](CCC(=O)O)NC(=O)[C@@H]1CCCN1C(=O)[C@H](C)NC(=O)CC(C)C)[C@@H](C)O)C(=O)N[C@@H](CCC(N)=O)C(=O)N[C@@H](CCCNC(=N)N)C(=O)N[C@@H](Cc1ccc(O)cc1)C(=O)N[C@@H](Cc1ccc(O)cc1)C(=O)N[C@H](C(=O)N[C@@H](CO)C(=O)N[C@@H](CC(C)C)C(=O)N[C@@H](CCCNC(=N)N)C(=O)N[C@@H](Cc1c[nH]cn1)C(=O)N[C@@H](Cc1ccc(O)cc1)C(=O)N[C@@H](CCC(N)=O)C(=O)N[C@@H](CC(N)=O)C(=O)N[C@@H](Cc1c[nH]c2ccccc12)C(=O)N[C@@H](CC(C)C)C(=O)N[C@H](C(=O)N[C@@H](CCCNC(=N)N)C(=O)N[C@@H](CCC(N)=O)C(=O)N[C@@H](CCCNC(=N)N)C(=O)N[C@@H](Cc1ccc(O)cc1)C(N)=O)[C@@H](C)O)C(C)C

One may read the Ki as a measure of affinity in units of concentration, obtained from inhibition or displacement.

The test deals with T1, human NPY2 receptor. Description: RLB: displacement of 125I-PYY(1-36) from hNPY2R membranes. (Displacement assays read how much labelled ligand stays bound in the presence of the test substance.)
Turning to B1, the affinity, expressed as Ki, was 14 nM.

Take B2: the inhibitory constant (Ki) turned out to be 4.28 nM. Then B3, with 2.14 nM; and B4, with 6.42 nM; and B5, with 3.53 nM.
